Like-named read-outs stand apart in the source and are kept apart here. Bounds are passed on as bounds.

Broadly, the Ki is a dissociation constant, usually derived from enzyme kinetics or from competition with a known ligand.

In experiment [1] the target is human α-thrombin (recombinant) (human), P00734. Nature of the experiment: thrombin amidolytic assay with S2238, Morrison tight-binding fit.
Experiment [2] shares this target. Nature of the experiment: thrombin amidolytic assay with S2238; column headed Affinity (nM).
For experiment [3] the target is unchanged. The experiment in a line: cell-based or functional assay.
For experiment [4] the target is unchanged. The experiment in a line: cell-based or functional assay. This is another data set of the same source.
For experiment [5] the target is unchanged. The experiment in a line: comparison of Ki values.
Experiment [6] shares this target. The experiment in a line: assay not named; the printed µM is most likely a misprint of pM (compare Table 5 and paragraph 9).

In the case of SDEAVRAIPKMYSTAPPGDFEEIPDDAIEE (modifications not checked) [ultravariegin], the Ki turned out to be 0.0044 nM in experiment [1], 0.001 nM in experiment [2] and 1500 nM in experiment [6]. For the same molecule, the IC50, inhibition of thrombin amidolytic activity is 0.4 nM in experiment [3] and 0.26 nM in experiment [4]. Also, the fold more potent than variegin (Ki) in experiment [5] was greater than 70 fold. In addition, the fold stronger affinity than avathrin and variegin in experiment [5] is greater than 200 fold.

For the origin of these results see patent publication US20190002511A1.
